From PMC6311007 come the findings set out here.

This assay has as its target porcine CSF1 fused to an antibody Fc region (pCSF1-Fc), produced in egg white of transgenic hens (porcine). Put plainly: non-reducing SDS-PAGE; pCSF1-Fc purified from egg white (MabSelect SuRe, SEC), non-reducing SDS-PAGE stained with Instant Blue.

As for “porcine CSF1 fused to an antibody Fc region (pCSF1-Fc), produced in egg white of transgenic hens (Fc fusion)”, the stoichiometry N was found to be 2.
